According to paper PMC7661507, “Polyelectrolyte interactions enable rapid association and dissociation in high-affinity disordered protein complexes” (Nature Communications, 2020):
Changes are numbered by the printed parent chain. In names and notes the source's numbering stands. Blank lines part the entries; values can stand above or below the binder they belong to.

Legend:
Details in all cases: both partners purified
[1] = biological target: T1, unlabeled recombinant wild-type human histone H1.0 (human, UniProt P07305 1-194); experiment: single-molecule FRET of freely diffusing molecules, competition titration; 50 pM labeled ProTα and constant unlabeled H1 (10 nM; also 1 µM and 20 µM in Fig. 2), unlabeled ProTα varied; TBS, 200 mM ionic strength; coupled binding equilibria fit
T1 construct: linker histone H1.0, human, H1F0 gene, UniProt P07305, wild type; also called linker histone H1.0; unlabeled H1; source: bought: New England Biolabs (cat. # M2501S)

[2] = biological target: T1, unlabeled recombinant wild-type human …; experiment: single-molecule FRET of surface-immobilized molecules; biotinylated labeled ProTα immobilised on neutravidin/PEG surface, nanomolar unlabeled H1 in solution; degassed TBS in D2O, 200 mM ionic strength, oxygen scavenger; two-state hidden Markov model of photon time traces
[3] = biological target: T1, unlabeled recombinant wild-type human …; experiment: single-molecule FRET of freely diffusing molecules; 50 pM donor/acceptor-labeled ProTα titrated with unlabeled H1; fraction bound from transfer efficiency histograms; 10 mM TBS, 0.1 mM EDTA, 200 mM ionic strength (KCl), 140 mM β-mercaptoethanol, 0.01% Tween 20

- Kd [1]: 1.1 nM
B1: unlabeled ProTα (natural protein, human, UniProt P06454 1-111, looked up)
chain: MSDAAVDTSSEITTKDLKEKKEVVEEAENGRDAPANGNAENEENGEQEADNEVDEEEEEGGEEEEEEEEGDGEEEDGDEDEEAESATGKRAAEDDEDDDVDTKKQKTDEDD
notes: prothymosin α (ProTα), human, PTMA gene, UniProt P06454; The main text calls it only 'unlabeled ProTα'; also called prothymosin α; source: E. coli C41, purified (IMAC, tag cleavage, RP-HPLC)

- Kd [2]: 1.2 ± 0.1 nM
- koff [2]: 1.7 ± 0.1 s⁻¹
- kon [2]: 1.45e+09 M⁻¹ s⁻¹
B2: Avi-Tag-ProTα E56C/D110C labeled with Cy3B/LD650 (natural protein)
chain: B1 chain with E57C, D111C
modifications: biotin on Lys12 of the Avi-tag; Cy3B maleimide and LD650 maleimide on the cysteines at positions 56 and 110

- Kd [3]: 0.73 nM
B3: ProTα E56C/D110C labeled with Alexa Fluor 488/594 (natural protein)
chain: SDAAVDTSSEITTKDLKEKKEVVEEAENGRDAPANGNAENEENGEQEADNEVDEECEEGGEEEEEEEEGDGEEEDGDEDEEAESATGKRAAEDDEDDDVDTKKQKTDEDC
modifications: Alexa Fluor 488 maleimide and Alexa Fluor 594 maleimide on the cysteines at positions 56 and 110
